Measured values reported in EP4755916A1.

Tests used:
[1] = target: human BTN3A1 expressed on HEK293 cells (human) (UniProt O00481); experiment: flow cytometry, HEK293 cells transiently expressing human BTN3A1, B cell supernatant
[2] = target: human BTN3A1 recombinant protein with his tag (h-BTN3A1-his) (human) (UniProt O00481); experiment: ELISA, plate coated with h-BTN3A1-his 1 ug/mL, B cell supernatant
[3] = target: BTN3A protein on SKOV-3 cells; experiment: cell-based or functional assay

Sequence of human BTN3A1 expressed on HEK293 cells (human) (O00481 30-513): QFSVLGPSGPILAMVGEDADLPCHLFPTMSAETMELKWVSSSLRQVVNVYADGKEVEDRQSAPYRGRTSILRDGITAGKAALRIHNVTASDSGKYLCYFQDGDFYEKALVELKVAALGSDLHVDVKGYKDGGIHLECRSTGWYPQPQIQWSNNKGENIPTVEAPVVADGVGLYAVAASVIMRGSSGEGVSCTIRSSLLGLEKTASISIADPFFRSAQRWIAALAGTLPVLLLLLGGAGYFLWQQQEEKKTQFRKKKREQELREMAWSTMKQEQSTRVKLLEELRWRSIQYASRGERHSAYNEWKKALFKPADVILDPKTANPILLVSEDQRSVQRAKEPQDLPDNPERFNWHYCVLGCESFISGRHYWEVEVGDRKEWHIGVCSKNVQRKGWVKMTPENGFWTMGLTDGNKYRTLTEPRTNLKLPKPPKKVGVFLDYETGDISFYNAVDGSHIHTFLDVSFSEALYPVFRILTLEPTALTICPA
Sequence of human BTN3A1 recombinant protein with his tag (h-BTN3A1-his) (human) (O00481 30-254 limits assumed): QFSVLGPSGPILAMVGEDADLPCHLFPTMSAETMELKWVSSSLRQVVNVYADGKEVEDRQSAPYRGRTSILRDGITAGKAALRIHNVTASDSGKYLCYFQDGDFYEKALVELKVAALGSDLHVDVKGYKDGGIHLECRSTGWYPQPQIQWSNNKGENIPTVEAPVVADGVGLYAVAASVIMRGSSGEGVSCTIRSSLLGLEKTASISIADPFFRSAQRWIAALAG

MFI [1] [MFI] | Percentage (%) [1] [%] | ELISA (OD 450) [2] [OD450] | EC50 of IFNγ secretion by Vγ9Vδ2 T cells co-cultured with SKOV-3 cells [3] [nM] | Maximum IFNγ (pg/mL), Vγ9Vδ2 T cells co-cultured with SKOV-3 cells [3] [pg/mL] | Binder
190000 | 98.3 | 2.1 | – | – | anti-BTN3A1 rabbit-derived monoclonal antibody r20A3 (antibody, V domains shown) VH: QSVEESGGRLVTPGTPLTLTCTASGFTINNYYMNWVRQAPGKGLEWIGIIYGSDNTYYASWAKGRFTISKTSTTVDLIMTSPTTEDTATYFCVRNLDYSSAYFHIWGPGTLVTVSS VL: QVLTQTPSPVSAAVGGTVSISCQASQSVYNNNRLAWYQQKPGQPPNLLIYEASKLASGVPSRFKGSGSGTQFTLIISEVQCEDAATYYCQGYYSGFIYPFGGGTEVVVK
444000 | 99 | 1.84 | – | – | anti-BTN3A1 rabbit-derived monoclonal antibody r17G4 (antibody, V domains shown) VH: QSLEESGGRLVTPGTPLTLTCTASGFSLNDYYITWVRQAPGKGLEWIGVIYGSSNTVYASWAKGRFTISKTSTMVDLRITSPTTEDTATYFCARGYLASSADIWGPGTLVTVSL VL: QVLTQTPSPVSAAVGGTVTINCQSSQSVYNNNRLAWYQQKPGQPPKLLIYDASTLASGVPSRFKGSGSGTDFTLTISDLECADAATYYCQTYYSGYIWAFGGGTEVVVK
– | – | – | 0.284 | 2470 | 20A3-H2L2 (antibody, human IgG1, kappa) heavy: EVQLVESGGGLVQPGGSLRLSCAASGFTINNYYMNWVRQAPGKGLEWVSIIYGSDNTYYASWAKGRFTISKDNSKNTVYLQMNSLRAEDTAVYYCVRNLDYSSAYFHIWGQGTLVTVSSASTKGPSVFPLAPSSKSTSGGTAALGCLVKDYFPEPVTVSWNSGALTSGVHTFPAVLQSSGLYSLSSVVTVPSSSLGTQTYICNVNHKPSNTKVDKRVEPKSCDKTHTCPPCPAPEFEGGPSVFLFPPKPKDTLMISRTPEVTCVVVDVSHEDPEVKFNWYVDGVEVHNAKTKPREEQYNSTYRVVSVLTVLHQDWLNGKEYKCKVSNKALPASIEKTISKAKGQPREPQVYTLPPSREEMTKNQVSLTCLVKGFYPSDIAVEWESNGQPENNYKTTPPVLDSDGSFFLYSKLTVDKSRWQQGNVFSCSVMHEALHNHYTQKSLSLSPGK light: DIQLTQSPSSLSASVGDRVTITCQASQSVYNNNRLAWYQQKPGKPPKLLIYEASKLASGVPSRFSGSGSGTDFTLTISSLQPEDVATYYCQGYYSGFIYPFGGGTKVEIKRTVAAPSVFIFPPSDEQLKSGTASVVCLLNNFYPREAKVQWKVDNALQSGNSQESVTEQDSKDSTYSLSSTLTLSKADYEKHKVYACEVTHQGLSSPVTKSFNRGEC
